From paper PMC8249388

Assays:
GST-Bicc1-KH [1] = target: T1, GST-Bicc1-KH (UniProt Q99MQ1); assay: competition EMSA; settings: 200 nM protein, 10 mM Tris-HCl pH 8, 100 mM KCl, 2.5 mM MgCl2, 2.5% glycerol, 1 mM DTT, 1 ug yeast tRNA in 20 uL, on ice 30 min, 1 pmol tagged RNA + 2.5 pmol DNA probe, 5% …
T1 sequence (Q99MQ1 whole entry, looked up): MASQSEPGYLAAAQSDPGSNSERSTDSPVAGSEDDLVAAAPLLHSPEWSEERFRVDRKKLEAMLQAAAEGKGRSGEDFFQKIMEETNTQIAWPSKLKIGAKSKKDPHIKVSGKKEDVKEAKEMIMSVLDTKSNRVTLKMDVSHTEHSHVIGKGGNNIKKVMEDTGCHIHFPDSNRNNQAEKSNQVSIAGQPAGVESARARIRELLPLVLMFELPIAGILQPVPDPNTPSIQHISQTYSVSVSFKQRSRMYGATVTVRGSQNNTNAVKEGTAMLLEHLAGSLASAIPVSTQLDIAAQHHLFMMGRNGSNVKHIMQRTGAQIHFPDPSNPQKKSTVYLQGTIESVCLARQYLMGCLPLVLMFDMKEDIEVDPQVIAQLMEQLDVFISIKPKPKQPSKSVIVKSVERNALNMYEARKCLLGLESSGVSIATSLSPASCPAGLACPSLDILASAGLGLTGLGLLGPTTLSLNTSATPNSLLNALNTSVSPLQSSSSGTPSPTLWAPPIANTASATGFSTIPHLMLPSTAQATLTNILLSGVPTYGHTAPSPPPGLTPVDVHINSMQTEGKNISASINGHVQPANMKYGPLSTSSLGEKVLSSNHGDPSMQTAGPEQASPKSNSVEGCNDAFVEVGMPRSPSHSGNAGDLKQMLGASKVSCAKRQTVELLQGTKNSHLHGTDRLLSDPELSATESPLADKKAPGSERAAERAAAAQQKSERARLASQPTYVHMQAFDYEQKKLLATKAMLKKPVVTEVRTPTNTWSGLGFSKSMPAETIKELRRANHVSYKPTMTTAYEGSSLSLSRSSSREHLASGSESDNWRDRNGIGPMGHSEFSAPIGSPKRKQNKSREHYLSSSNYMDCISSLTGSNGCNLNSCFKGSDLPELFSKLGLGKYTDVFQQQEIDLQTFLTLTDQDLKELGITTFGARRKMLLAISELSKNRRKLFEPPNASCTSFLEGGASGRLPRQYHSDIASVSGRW

GST-Bicc1-KH [2] = target: T1, GST-Bicc1-KH; assay: EMSA; settings: RNP1; apparent Kd; yeast tRNA present; 10 mM Tris-HCl pH 8, 100 mM KCl, 2.5 mM MgCl2, 2.5% glycerol, 1 mM DTT, 1 ug yeast tRNA in 20 uL, on ice 30 min; 1 pmol tagged RNA + 2.5 pmol DNA probe; 5% …

UGAAGACGUGACUUCUAUUCGUAUGUGAUAUGUGGAGGUUAAAAA [226-270 8-mer (GCCCUGGG to GACGUGAC)]
IC50 (GST-Bicc1-KH [1]; vs labelled 66-110): 392 nM

GAAAGACGUGACCUGAAUGAUGUGCAUCGGGUCACGUCUUUCGAA [66-110 Stem+ (GACG masked in elongated stem)]
IC50 (GST-Bicc1-KH [1]; vs labelled 66-110): > 1000 nM

GCUGAGCAUCCUAGAGGAAUGCGCAGGACAUGAAUGAACCUUGGCAAGAAGCAGGAGACGCAAUAGAAAGACGUGACCUGAAUGAUGUGCAUCGGGUCAAGAGAGCAGAAUUGGACAGGGCCAGAAUACUAGACAUGGUCCCCCAGUCAUGGGUUUAGACCACUAAUAGUCGUAGAAUGUGGGGCUAGGGUAUAACUCAGUGGGAGAGGGCUUGCCUAGCAUGCAUGUCUGGGCAACAGGCUCAGG / CTGAGCCTGTTGCCCAGAC [Dand5 3'-UTR 1-225 probe]
Kd (GST-Bicc1-KH [2]): 233 nM

UGAAGCCCUGGGUUCUAUUCGUAUGUGAUAUGUGGAGGUUAAAAAAAGGUGAAAAUUAGCUAUAGUGUAUGAUUAGCCCUGUGUGAGAGGGAACAUUCAUGCCACAAUCACUAACUCACGUCCUCCUCAGGAAUCCUCAGCAGUCCCGCAAGGUAGAAUUUCACCAUGGGUCAUUUUACAGAUGAGGAAACCGAAGCUAU [Dand5 3'-UTR 226-425 (distal) competitor]
IC50 (GST-Bicc1-KH [1]; vs labelled 1-225): > 1000 nM

GAAAAAGGUGACCUGAAUGAUGUGCAUCGGGUCAAGAGAGCAGAA [66-110 Mut1 (GACG to AAGG)]
IC50 (GST-Bicc1-KH [1]; vs labelled 66-110): > 1000 nM

GAAAGACGUGACCUGAAUGAUGUGCAUCGGGUCAAGAGAGCAGAAUGUCUGGGCAACAGGCUCAGG / CTGAGCCTGTTGCCCAGAC [Dand5 3'-UTR 66-110 probe]
Kd (GST-Bicc1-KH [2]): 120 nM

UGAACCUUGGCAAGAAGCAGGAGACGCAAUAGAAAGACGUGACCUGAAUGAUGUGCAUCGGGUCAAGAGAGCAGAAUUGGACAGGGCCAGAAUACUAGACAUGGUCCCCCAGUCAUGGGUUUAUGUCUGGGCAACAGGCUCAGG / CTGAGCCTGTTGCCCAGAC [Dand5 3'-UTR 35-157 probe]
Kd (GST-Bicc1-KH [2]): 120 nM

UGAACCUUGGCAAGAAGCAGGAGACGCAAUAGAAAGACGUGACCUGAAUGAUGUGCAUCGGGUCAAGAGAGCAGAAUUGGACAGGGCCAGAAUACUAGACAUGGUCCCCCAGUCAUGGGUUUA [Dand5 3'-UTR 35-157 competitor]
IC50 (GST-Bicc1-KH [1]; vs labelled 35-157): 191 nM

GAAAGACGUGACCUGAAUGAUGUGCAUCGGGUCAAGAGAGCAGAA [Dand5 3'-UTR 66-110 competitor]
IC50 (GST-Bicc1-KH [1]; vs labelled 66-110): 203 nM

GAAAGACGUAAGCUGAAUGAUGUGCAUCGGGUCAAGAGAGCAGAA [66-110 Mut2 (UGAC to UAAG)]
IC50 (GST-Bicc1-KH [1]; vs labelled 66-110): 654 nM

GCUGAGCAUCCUAGAGGAAUGCGCAGGACAUGAAUGAACCUUGGCAAGAAGCAGGAGACGCAAUAGAAAGACGUGACCUGAAUGAUGUGCAUCGGGUCAAGAGAGCAGAAUUGGACAGGGCCAGAAUACUAGACAUGGUCCCCCAGUCAUGGGUUUAGACCACUAAUAGUCGUAGAAUGUGGGGCUAGGGUAUAACUCAGUGGGAGAGGGCUUGCCUAGCAUGCA [Dand5 3'-UTR 1-225 competitor]
IC50 (GST-Bicc1-KH [1]; vs labelled 1-225): 283 nM
